In this assay the target is TIP60, endogenous in C4-2 cells (human (endogenous in C4-2)) (UniProt Q92993). Nature of the assay: co-IP; endogenous proteins, C4-2 lysates; TIP60 immunoprecipitated with anti-TIP60; cells +/- 10 nM MB for 24 h; also cells transfected with siCtrl or siING3 and treated with MB; blot for AR.
TIP60, endogenous in C4-2 cells (human (endogenous in C4-2)), sequence (Q92993 whole entry): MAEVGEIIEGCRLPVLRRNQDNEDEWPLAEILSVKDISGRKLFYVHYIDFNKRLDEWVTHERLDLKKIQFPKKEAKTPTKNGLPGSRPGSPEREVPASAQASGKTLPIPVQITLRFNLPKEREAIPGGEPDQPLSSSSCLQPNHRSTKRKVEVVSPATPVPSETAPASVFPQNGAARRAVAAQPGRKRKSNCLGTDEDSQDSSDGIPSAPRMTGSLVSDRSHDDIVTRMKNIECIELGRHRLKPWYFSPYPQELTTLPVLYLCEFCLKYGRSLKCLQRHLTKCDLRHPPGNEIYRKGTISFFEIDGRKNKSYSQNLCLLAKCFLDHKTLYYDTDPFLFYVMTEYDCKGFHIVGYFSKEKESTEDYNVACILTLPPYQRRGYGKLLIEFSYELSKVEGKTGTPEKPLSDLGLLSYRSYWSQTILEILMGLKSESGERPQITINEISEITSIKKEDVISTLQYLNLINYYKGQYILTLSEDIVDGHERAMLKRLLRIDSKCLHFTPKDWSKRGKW

androgen receptor (AR), endogenous in C4-2 cells, sequence (P10275 whole entry): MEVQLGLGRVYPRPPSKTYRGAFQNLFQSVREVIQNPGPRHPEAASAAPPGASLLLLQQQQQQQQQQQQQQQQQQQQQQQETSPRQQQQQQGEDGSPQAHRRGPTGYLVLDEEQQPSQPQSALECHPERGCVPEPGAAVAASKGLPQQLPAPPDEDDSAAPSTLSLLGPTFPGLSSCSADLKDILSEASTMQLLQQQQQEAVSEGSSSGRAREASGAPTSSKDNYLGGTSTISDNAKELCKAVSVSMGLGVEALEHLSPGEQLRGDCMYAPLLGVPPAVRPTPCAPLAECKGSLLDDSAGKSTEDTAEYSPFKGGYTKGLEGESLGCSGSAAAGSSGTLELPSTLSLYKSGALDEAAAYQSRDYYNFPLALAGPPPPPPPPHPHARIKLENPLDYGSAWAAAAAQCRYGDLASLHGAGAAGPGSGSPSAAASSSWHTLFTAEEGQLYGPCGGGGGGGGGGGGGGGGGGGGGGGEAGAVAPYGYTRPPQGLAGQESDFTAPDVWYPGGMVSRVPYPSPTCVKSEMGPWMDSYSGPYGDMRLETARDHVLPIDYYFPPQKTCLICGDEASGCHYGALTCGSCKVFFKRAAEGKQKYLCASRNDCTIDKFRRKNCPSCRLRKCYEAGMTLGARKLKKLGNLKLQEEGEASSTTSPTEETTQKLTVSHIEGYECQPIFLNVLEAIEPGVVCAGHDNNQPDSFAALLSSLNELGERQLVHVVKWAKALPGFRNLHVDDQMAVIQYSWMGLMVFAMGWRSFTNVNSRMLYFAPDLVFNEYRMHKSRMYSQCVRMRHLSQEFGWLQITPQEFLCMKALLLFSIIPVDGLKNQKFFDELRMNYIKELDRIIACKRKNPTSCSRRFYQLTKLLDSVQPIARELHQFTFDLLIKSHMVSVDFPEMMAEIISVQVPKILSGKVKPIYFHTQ

In the case of “androgen receptor (AR), endogenous in C4-2 cells (from UniProt P10275 1-920)”, the fold reduction of the AR-TIP60 association with siING3 against siCtrl was 3 fold.

The values are drawn from PMC5434536.
